Laboratory results published in paper PMC10786891, “Massively parallel profiling of RNA-targeting CRISPR-Cas13d”.

T1: EsCas13d, nuclease-dead (Eubacterium siraeum, UniProt B0MS50, R295A;H300A;R849A;H854A)
T1 sequence: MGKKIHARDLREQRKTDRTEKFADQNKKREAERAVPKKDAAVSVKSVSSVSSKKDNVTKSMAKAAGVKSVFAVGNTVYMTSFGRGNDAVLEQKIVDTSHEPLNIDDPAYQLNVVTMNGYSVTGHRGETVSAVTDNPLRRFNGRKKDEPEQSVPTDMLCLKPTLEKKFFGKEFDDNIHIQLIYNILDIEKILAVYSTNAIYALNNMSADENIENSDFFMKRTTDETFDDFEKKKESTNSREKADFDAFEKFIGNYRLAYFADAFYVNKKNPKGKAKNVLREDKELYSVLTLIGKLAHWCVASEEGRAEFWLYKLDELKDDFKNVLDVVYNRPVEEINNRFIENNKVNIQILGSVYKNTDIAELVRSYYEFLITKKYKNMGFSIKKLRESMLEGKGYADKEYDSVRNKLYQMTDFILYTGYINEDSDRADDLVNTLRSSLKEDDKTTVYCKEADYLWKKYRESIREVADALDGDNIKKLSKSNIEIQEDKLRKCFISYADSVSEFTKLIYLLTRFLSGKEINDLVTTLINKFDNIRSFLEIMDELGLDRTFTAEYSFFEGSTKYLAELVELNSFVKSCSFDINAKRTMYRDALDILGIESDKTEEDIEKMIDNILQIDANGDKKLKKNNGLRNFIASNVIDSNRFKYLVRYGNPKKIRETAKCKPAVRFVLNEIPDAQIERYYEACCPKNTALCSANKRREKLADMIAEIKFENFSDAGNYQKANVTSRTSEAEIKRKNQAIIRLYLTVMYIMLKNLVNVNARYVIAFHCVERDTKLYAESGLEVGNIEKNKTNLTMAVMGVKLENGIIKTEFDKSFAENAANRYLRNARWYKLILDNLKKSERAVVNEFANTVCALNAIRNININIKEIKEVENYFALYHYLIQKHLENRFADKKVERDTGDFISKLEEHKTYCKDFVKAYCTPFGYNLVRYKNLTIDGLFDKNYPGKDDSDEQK


These binders were tested against T1, EsCas13d, nuclease-dead (assay: crRNA (strand 1, pre-loaded); Mg2+; 40 mM Tris-HCl pH 7.5, 150 mM NaCl, 6 mM MgCl2, 1 mM DTT, 0.1% Tween-20, 0.2 mg/ml BSA; 25 C; 10 min per concentration, then washed). Settings: tags: His6-TwinStrep-SUMO cleaved; N-terminal SNAP kept (SNAP-Surface 488); label: 3' end held by stalled T7 RNA polymerase.

Binder | Kd [nM]
target 2 MT 5'PFS UCU 3'PFS ACA (mixed) RNA 1: CACCCGUGCAAAAUUGCAGGGGUCUAAAACCUUCUCCAAAUUGUUUCAUCCU RNA 2: GGGAAUGGAUCCACAUCUACGAAUUCUCUAGGAUGAAACAAUUUGGAGAAGACAAGAUCGGAAGAGCACACGU | 9.2 ± 1.9
target 2 MT 5'PFS GGC 3'PFS UAA (mixed) RNA 1: CACCCGUGCAAAAUUGCAGGGGUCUAAAACCUUCUCCAAAUUGUUUCAUCCU RNA 2: GGGAAUGGAUCCACAUCUACGAAUUCGGCAGGAUGAAACAAUUUGGAGAAGUAAAGAUCGGAAGAGCACACGU | 9.4 ± 1.2
target 2 MT 5'PFS GAA 3'PFS UAC (mixed) RNA 1: CACCCGUGCAAAAUUGCAGGGGUCUAAAACCUUCUCCAAAUUGUUUCAUCCU RNA 2: GGGAAUGGAUCCACAUCUACGAAUUCGAAAGGAUGAAACAAUUUGGAGAAGUACAGAUCGGAAGAGCACACGU | 12 ± 4
target 2 MT 5'PFS GCU 3'PFS CAU (mixed) RNA 1: CACCCGUGCAAAAUUGCAGGGGUCUAAAACCUUCUCCAAAUUGUUUCAUCCU RNA 2: GGGAAUGGAUCCACAUCUACGAAUUCGCUAGGAUGAAACAAUUUGGAGAAGCAUAGAUCGGAAGAGCACACGU | 9.8 ± 2.5
target 2 MT 5'PFS CAC 3'PFS CAC (mixed) RNA 1: CACCCGUGCAAAAUUGCAGGGGUCUAAAACCUUCUCCAAAUUGUUUCAUCCU RNA 2: GGGAAUGGAUCCACAUCUACGAAUUCCACAGGAUGAAACAAUUUGGAGAAGCACAGAUCGGAAGAGCACACGU | 2.9 ± 0.4
target 2 MT 5'PFS AAA 3'PFS AUC (mixed) RNA 1: CACCCGUGCAAAAUUGCAGGGGUCUAAAACCUUCUCCAAAUUGUUUCAUCCU RNA 2: GGGAAUGGAUCCACAUCUACGAAUUCAAAAGGAUGAAACAAUUUGGAGAAGAUCAGAUCGGAAGAGCACACGU | 3.6 ± 0.7
target 2 MT 5'PFS AAA 3'PFS AUG (mixed) RNA 1: CACCCGUGCAAAAUUGCAGGGGUCUAAAACCUUCUCCAAAUUGUUUCAUCCU RNA 2: GGGAAUGGAUCCACAUCUACGAAUUCAAAAGGAUGAAACAAUUUGGAGAAGAUGAGAUCGGAAGAGCACACGU | 4.4 ± 0.8
target 2 MT 5'PFS GUA 3'PFS ACG (mixed) RNA 1: CACCCGUGCAAAAUUGCAGGGGUCUAAAACCUUCUCCAAAUUGUUUCAUCCU RNA 2: GGGAAUGGAUCCACAUCUACGAAUUCGUAAGGAUGAAACAAUUUGGAGAAGACGAGAUCGGAAGAGCACACGU | 10.6 ± 0.9
target 2 MT 5'PFS AGG 3'PFS CCG (mixed) RNA 1: CACCCGUGCAAAAUUGCAGGGGUCUAAAACCUUCUCCAAAUUGUUUCAUCCU RNA 2: GGGAAUGGAUCCACAUCUACGAAUUCAGGAGGAUGAAACAAUUUGGAGAAGCCGAGAUCGGAAGAGCACACGU | 8.2 ± 0.9
target 2 MT 5'PFS AAA 3'PFS AUU (mixed) RNA 1: CACCCGUGCAAAAUUGCAGGGGUCUAAAACCUUCUCCAAAUUGUUUCAUCCU RNA 2: GGGAAUGGAUCCACAUCUACGAAUUCAAAAGGAUGAAACAAUUUGGAGAAGAUUAGAUCGGAAGAGCACACGU | 5.2 ± 1
target 2 MT 5'PFS UGG 3'PFS CGC (mixed) RNA 1: CACCCGUGCAAAAUUGCAGGGGUCUAAAACCUUCUCCAAAUUGUUUCAUCCU RNA 2: GGGAAUGGAUCCACAUCUACGAAUUCUGGAGGAUGAAACAAUUUGGAGAAGCGCAGAUCGGAAGAGCACACGU | 5.8 ± 0.4
target 2 MT 5'PFS UGG 3'PFS CGA (mixed) RNA 1: CACCCGUGCAAAAUUGCAGGGGUCUAAAACCUUCUCCAAAUUGUUUCAUCCU RNA 2: GGGAAUGGAUCCACAUCUACGAAUUCUGGAGGAUGAAACAAUUUGGAGAAGCGAAGAUCGGAAGAGCACACGU | 5.4 ± 0.8
target 2 MT 5'PFS CGG 3'PFS UUA (mixed) RNA 1: CACCCGUGCAAAAUUGCAGGGGUCUAAAACCUUCUCCAAAUUGUUUCAUCCU RNA 2: GGGAAUGGAUCCACAUCUACGAAUUCCGGAGGAUGAAACAAUUUGGAGAAGUUAAGAUCGGAAGAGCACACGU | 7 ± 1
target 2 MT 5'PFS ACC 3'PFS AGA (mixed) RNA 1: CACCCGUGCAAAAUUGCAGGGGUCUAAAACCUUCUCCAAAUUGUUUCAUCCU RNA 2: GGGAAUGGAUCCACAUCUACGAAUUCACCAGGAUGAAACAAUUUGGAGAAGAGAAGAUCGGAAGAGCACACGU | 7.9 ± 3.1
target 2 MT 5'PFS UUG 3'PFS UAU (mixed) RNA 1: CACCCGUGCAAAAUUGCAGGGGUCUAAAACCUUCUCCAAAUUGUUUCAUCCU RNA 2: GGGAAUGGAUCCACAUCUACGAAUUCUUGAGGAUGAAACAAUUUGGAGAAGUAUAGAUCGGAAGAGCACACGU | 8.6 ± 0.8
target 2 MT 5'PFS GAA 3'PFS UAA (mixed) RNA 1: CACCCGUGCAAAAUUGCAGGGGUCUAAAACCUUCUCCAAAUUGUUUCAUCCU RNA 2: GGGAAUGGAUCCACAUCUACGAAUUCGAAAGGAUGAAACAAUUUGGAGAAGUAAAGAUCGGAAGAGCACACGU | 7.3 ± 1.5
target 2 MT 5'PFS CGG 3'PFS UUG (mixed) RNA 1: CACCCGUGCAAAAUUGCAGGGGUCUAAAACCUUCUCCAAAUUGUUUCAUCCU RNA 2: GGGAAUGGAUCCACAUCUACGAAUUCCGGAGGAUGAAACAAUUUGGAGAAGUUGAGAUCGGAAGAGCACACGU | 6.5 ± 0.7
target 2 MT 5'PFS CAC 3'PFS CAG (mixed) RNA 1: CACCCGUGCAAAAUUGCAGGGGUCUAAAACCUUCUCCAAAUUGUUUCAUCCU RNA 2: GGGAAUGGAUCCACAUCUACGAAUUCCACAGGAUGAAACAAUUUGGAGAAGCAGAGAUCGGAAGAGCACACGU | 1.3 ± 0.23
target 2 MT 5'PFS GUA 3'PFS ACC (mixed) RNA 1: CACCCGUGCAAAAUUGCAGGGGUCUAAAACCUUCUCCAAAUUGUUUCAUCCU RNA 2: GGGAAUGGAUCCACAUCUACGAAUUCGUAAGGAUGAAACAAUUUGGAGAAGACCAGAUCGGAAGAGCACACGU | 22 ± 4
target 2 MT 5'PFS UGU 3'PFS UAC (mixed) RNA 1: CACCCGUGCAAAAUUGCAGGGGUCUAAAACCUUCUCCAAAUUGUUUCAUCCU RNA 2: GGGAAUGGAUCCACAUCUACGAAUUCUGUAGGAUGAAACAAUUUGGAGAAGUACAGAUCGGAAGAGCACACGU | 25 ± 4
target 2 MT 5'PFS GUA 3'PFS ACA (mixed) RNA 1: CACCCGUGCAAAAUUGCAGGGGUCUAAAACCUUCUCCAAAUUGUUUCAUCCU RNA 2: GGGAAUGGAUCCACAUCUACGAAUUCGUAAGGAUGAAACAAUUUGGAGAAGACAAGAUCGGAAGAGCACACGU | 10.7 ± 1.6
target 2 MT 5'PFS CAC 3'PFS CAU (mixed) RNA 1: CACCCGUGCAAAAUUGCAGGGGUCUAAAACCUUCUCCAAAUUGUUUCAUCCU RNA 2: GGGAAUGGAUCCACAUCUACGAAUUCCACAGGAUGAAACAAUUUGGAGAAGCAUAGAUCGGAAGAGCACACGU | 3.5 ± 0.4
target 2 MT 5'PFS CUG 3'PFS CAA (mixed) RNA 1: CACCCGUGCAAAAUUGCAGGGGUCUAAAACCUUCUCCAAAUUGUUUCAUCCU RNA 2: GGGAAUGGAUCCACAUCUACGAAUUCCUGAGGAUGAAACAAUUUGGAGAAGCAAAGAUCGGAAGAGCACACGU | 2.4 ± 0.4
target 2 MT 5'PFS GUA 3'PFS ACU (mixed) RNA 1: CACCCGUGCAAAAUUGCAGGGGUCUAAAACCUUCUCCAAAUUGUUUCAUCCU RNA 2: GGGAAUGGAUCCACAUCUACGAAUUCGUAAGGAUGAAACAAUUUGGAGAAGACUAGAUCGGAAGAGCACACGU | 15.9 ± 2.7
target 2 MT 5'PFS CGG 3'PFS UUC (mixed) RNA 1: CACCCGUGCAAAAUUGCAGGGGUCUAAAACCUUCUCCAAAUUGUUUCAUCCU RNA 2: GGGAAUGGAUCCACAUCUACGAAUUCCGGAGGAUGAAACAAUUUGGAGAAGUUCAGAUCGGAAGAGCACACGU | 10.8 ± 1.7
target 1 insA 3' of 21,insC 3' of 20 (mixed) RNA 1: CACCCGUGCAAAAAUGCAGGGGUCUAAAACUGAGCGGAUAACCUCUCUAUGG RNA 2: GGGAAUGGAUCCACAUCUACGAAUUCGUACCAACUAGAGAGGUUAUCCGCUCACCGAGAUCGGAAGAGCACACGU | 10 ± 0.5
target 1 A1G,A9C (mixed) RNA 1: CACCCGUGCAAAAAUGCAGGGGUCUAAAACUGAGCGGAUAACCUCUCUAUGG RNA 2: GGGAAUGGAUCCACAUCUACGAAUUCGUACCAUAGAGAGGUUCUCCGCUCGCCGAGAUCGGAAGAGCACACGU | 13.7 ± 2.3
target 1 insU 3' of 4,insA 3' of 3 (mixed) RNA 1: CACCCGUGCAAAAAUGCAGGGGUCUAAAACUGAGCGGAUAACCUCUCUAUGG RNA 2: GGGAAUGGAUCCACAUCUACGAAUUCGUACCAUAGAGAGGUUAUCCGCUUACACCGAGAUCGGAAGAGCACACGU | 8 ± 0.3
